This note sets out measurements from PMC3398191.

Series [1] has as its target T1, Atl1 (MBP fusion cleaved with Factor Xa) (Schizosaccharomyces pombe, UniProt Q9UTN9 1-108).
T1 sequence: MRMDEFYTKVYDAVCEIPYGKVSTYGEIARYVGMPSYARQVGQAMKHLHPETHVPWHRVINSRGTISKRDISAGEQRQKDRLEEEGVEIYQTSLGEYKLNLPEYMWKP
Kind of series: EMSA. For orientation: In EMSA bound probe runs differently from free probe, usually more slowly.

Series [2] deals with Maltose-binding protein (MBP) (UniProt P0AEX9 27-396). In words: EMSA.

B1: G control 23-mer duplex (dsDNA)
DNA 1: GAACTGCAGCTCCGTGCTGGCCC
DNA 2: GGGCCAGCACGGAGCTGCAGTTC
As to B1, the binding result in series [1] is given as “no binding”.

B2: O6-MeG 23-mer duplex (dsDNA)
DNA 1: GAACTGCAGCTCCGTGCTGGCCC
DNA 2: GGGCCAGCACGGAGCTGCAGTTC
modifications: O6-methylguanine at G6 of strand 1
Consider B2, for which the results for the binding result in series [1] and in series [2] were “binds” and “no binding”, respectively.

B3: O6-HOEtG 23-mer duplex (dsDNA)
DNA 1: GAACTGCAGCTCCGTGCTGGCCC
DNA 2: GGGCCAGCACGGAGCTGCAGTTC
modifications: O6-hydroxyethylguanine at G6 of strand 1
For B3, in series [1], the binding result is listed as “binds”.

B4: O6-CMG 23-mer duplex (dsDNA)
DNA 1: GAACTGCAGCTCCGTGCTGGCCC
DNA 2: GGGCCAGCACGGAGCTGCAGTTC
modifications: O6-carboxymethylguanine at G6 of strand 1
Consider B4, for which, in series [1], the binding result is listed as “binds”.

B5: O6-BTG 23-mer duplex (dsDNA)
DNA 1: GAACTGCAGCTCCGTGCTGGCCC
DNA 2: GGGCCAGCACGGAGCTGCAGTTC
modifications: O6-(4-bromothenyl)guanine at G6 of strand 1
With B5, in series [1], the binding result is “binds”.

B6: O6-BuG 23-mer duplex (dsDNA)
DNA 1: GAACTGCAGCTCCGTGCTGGCCC
DNA 2: GGGCCAGCACGGAGCTGCAGTTC
modifications: O6-n-butylguanine at G6 of strand 1
With B6, the binding result in series [1] is “binds”.

B7: O6-EtG 23-mer duplex (dsDNA)
DNA 1: GAACTGCAGCTCCGTGCTGGCCC
DNA 2: GGGCCAGCACGGAGCTGCAGTTC
modifications: O6-ethylguanine at G6 of strand 1
In the case of B7, the binding result in series [1] was “binds”.

B8: O6-PobG 23-mer duplex (dsDNA)
DNA 1: GAACTGCAGCTCCGTGCTGGCCC
DNA 2: GGGCCAGCACGGAGCTGCAGTTC
modifications: O6-pyridyloxobutylguanine at G6 of strand 1
In the case of B8, the binding result in series [1] is reported as “binds”.

B9: O6-BnG 23-mer duplex (dsDNA)
DNA 1: GAACTGCAGCTCCGTGCTGGCCC
DNA 2: GGGCCAGCACGGAGCTGCAGTTC
modifications: O6-benzylguanine at G6 of strand 1
Take B9: the binding result in series [1] is given as “binds”.

B10: O6-PrG 23-mer duplex (dsDNA)
DNA 1: GAACTGCAGCTCCGTGCTGGCCC
DNA 2: GGGCCAGCACGGAGCTGCAGTTC
modifications: O6-n-propylguanine at G6 of strand 1
For B10, the binding result in series [1] is reported as “binds”.
